# Reference: patent US20220332804A1 (CSL INNOVATION, published 2022)
# T1: human C2 S456A (human, UniProt P06681 21-752)
# T1 sequence: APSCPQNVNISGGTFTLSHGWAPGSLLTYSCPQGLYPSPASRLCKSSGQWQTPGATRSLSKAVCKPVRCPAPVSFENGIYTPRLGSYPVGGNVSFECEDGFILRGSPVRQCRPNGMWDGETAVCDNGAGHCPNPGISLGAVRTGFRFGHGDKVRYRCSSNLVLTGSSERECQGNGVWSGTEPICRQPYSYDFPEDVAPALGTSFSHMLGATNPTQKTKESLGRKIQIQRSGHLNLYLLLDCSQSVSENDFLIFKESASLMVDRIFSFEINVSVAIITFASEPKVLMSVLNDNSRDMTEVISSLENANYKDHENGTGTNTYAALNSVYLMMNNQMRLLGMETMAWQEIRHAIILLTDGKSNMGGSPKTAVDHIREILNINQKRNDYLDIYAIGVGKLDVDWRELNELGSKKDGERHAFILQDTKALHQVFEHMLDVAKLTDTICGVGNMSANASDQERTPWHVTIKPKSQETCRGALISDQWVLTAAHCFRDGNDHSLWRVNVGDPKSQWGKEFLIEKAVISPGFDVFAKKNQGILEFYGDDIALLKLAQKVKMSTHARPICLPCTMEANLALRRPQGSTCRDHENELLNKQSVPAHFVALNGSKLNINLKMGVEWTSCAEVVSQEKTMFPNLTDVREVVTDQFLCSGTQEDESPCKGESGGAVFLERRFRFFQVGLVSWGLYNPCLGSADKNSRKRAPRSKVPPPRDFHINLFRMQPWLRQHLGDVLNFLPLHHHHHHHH
# T2: human C2 T442A (human, UniProt P06681 21-752)
# T2 sequence: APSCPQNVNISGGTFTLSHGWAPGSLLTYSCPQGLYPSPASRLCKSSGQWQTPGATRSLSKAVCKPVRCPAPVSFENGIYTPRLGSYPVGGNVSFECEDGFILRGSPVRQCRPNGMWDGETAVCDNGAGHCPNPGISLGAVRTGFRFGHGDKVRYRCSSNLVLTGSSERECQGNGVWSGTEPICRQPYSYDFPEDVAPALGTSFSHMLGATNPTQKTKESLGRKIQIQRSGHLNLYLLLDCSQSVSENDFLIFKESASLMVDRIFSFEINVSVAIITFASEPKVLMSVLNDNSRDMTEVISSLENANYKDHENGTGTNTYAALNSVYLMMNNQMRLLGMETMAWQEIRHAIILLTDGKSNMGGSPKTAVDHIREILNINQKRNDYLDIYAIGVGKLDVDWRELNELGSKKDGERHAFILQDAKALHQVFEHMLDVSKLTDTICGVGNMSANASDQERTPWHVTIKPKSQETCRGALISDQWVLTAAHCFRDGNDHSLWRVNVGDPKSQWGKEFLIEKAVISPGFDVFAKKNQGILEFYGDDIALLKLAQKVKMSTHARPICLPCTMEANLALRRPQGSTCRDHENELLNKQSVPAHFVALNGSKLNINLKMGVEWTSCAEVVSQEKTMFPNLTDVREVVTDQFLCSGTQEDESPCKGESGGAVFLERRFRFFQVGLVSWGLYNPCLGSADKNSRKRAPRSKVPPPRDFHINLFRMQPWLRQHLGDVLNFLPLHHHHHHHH
# T3: human C2 G427A (human, UniProt P06681 21-752)
# T3 sequence: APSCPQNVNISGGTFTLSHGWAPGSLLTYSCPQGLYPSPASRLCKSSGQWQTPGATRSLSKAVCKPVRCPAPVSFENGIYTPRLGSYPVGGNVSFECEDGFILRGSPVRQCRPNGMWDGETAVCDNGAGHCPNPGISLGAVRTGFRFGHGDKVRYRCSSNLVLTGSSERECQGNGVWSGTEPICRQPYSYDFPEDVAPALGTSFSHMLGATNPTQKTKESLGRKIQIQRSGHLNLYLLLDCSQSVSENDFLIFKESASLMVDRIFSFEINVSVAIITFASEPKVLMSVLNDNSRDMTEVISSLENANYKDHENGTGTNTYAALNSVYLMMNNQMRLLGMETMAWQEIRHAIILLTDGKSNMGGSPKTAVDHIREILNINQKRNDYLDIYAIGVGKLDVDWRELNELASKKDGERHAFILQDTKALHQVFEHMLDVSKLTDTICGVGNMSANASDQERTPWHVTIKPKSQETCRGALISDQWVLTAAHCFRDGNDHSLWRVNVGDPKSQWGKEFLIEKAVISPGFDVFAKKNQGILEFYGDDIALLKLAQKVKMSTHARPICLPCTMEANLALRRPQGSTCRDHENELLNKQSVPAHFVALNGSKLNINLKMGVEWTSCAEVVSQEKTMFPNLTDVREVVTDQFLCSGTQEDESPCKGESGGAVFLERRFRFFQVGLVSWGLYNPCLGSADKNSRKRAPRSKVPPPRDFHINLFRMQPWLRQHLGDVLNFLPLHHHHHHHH
# T4: human C2 K430A (human, UniProt P06681 21-752)
# T4 sequence: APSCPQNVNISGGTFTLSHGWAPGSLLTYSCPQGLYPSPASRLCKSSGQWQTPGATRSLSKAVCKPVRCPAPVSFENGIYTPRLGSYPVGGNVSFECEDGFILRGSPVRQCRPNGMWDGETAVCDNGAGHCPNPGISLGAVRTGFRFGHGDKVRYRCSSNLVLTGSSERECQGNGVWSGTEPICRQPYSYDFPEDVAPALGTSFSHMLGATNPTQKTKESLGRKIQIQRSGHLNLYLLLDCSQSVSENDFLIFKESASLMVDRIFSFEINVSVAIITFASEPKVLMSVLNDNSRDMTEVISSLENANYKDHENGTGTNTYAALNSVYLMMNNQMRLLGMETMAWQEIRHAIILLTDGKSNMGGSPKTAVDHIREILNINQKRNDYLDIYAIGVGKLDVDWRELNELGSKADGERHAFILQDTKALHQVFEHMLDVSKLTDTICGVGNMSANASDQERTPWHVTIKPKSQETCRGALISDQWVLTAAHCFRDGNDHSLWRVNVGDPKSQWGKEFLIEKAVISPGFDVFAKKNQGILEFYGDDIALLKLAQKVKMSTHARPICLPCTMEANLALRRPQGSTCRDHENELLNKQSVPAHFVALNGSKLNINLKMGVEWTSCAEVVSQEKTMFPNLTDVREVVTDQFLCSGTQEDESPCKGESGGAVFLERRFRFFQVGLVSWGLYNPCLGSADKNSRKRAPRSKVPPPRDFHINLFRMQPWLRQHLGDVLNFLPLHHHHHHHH
# Legend:
# Assay in all cases: SPR; KD relative to WT C2;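 further: biacore SPR at 37 °C, anti-C2 mAbs captured on an anti-human IgG chip, alanine or serine C2 surface mutants tested, KD from 1:1 fit compared with wild-type C2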
# human C2 S456A = target: T1, human C2 S456A
# human C2 T442A = target: T2, human C2 T442A
# human C2 G427A = target: T3, human C2 G427A
# human C2 K430A = target: T4, human C2 K430A
binder,measurement,setting,value
"RF16-214 (antibody, V domains shown) VH: EVQLLESGGGLVQPGGSLRLSCAASGFTFSWYQMMWVRQAPGKGLEWVSRIYPSGGGTAYADSVKGRFTISRDNSKNTLYLQMNSLRAEDTAVYYCARDAGYGDNWGQGTLVTVSS VL: QSALTQPPSVSVSPGQTASITCSGDKLGEKYASWYQQKAGQSPVMVIYQDRKRPSGIPERFSGSNSGNTATLTISGTQAMDEADYYCQAWDTRAVVFGGGTKLTVLG",Fold diff,human C2 S456A,5 fold
same,Fold diff,human C2 T442A,2 fold
same,Fold diff,human C2 G427A,0 fold
same,Fold diff,human C2 K430A,10 fold
